Assay [1] deals with FliS-FlaBc complex (Helicobacter pylori (strain 26695) | Helicobacter pylori) (UniProt Q07911). The assay can be described thus: MST; labelled FliS or FliS-FlaBc (40 nM) mixed with HP1076 (6.2 μM to 0.189 nM, or 3.83 mM to 117 μM); 20 mM Tris pH 7.5, 150 mM NaCl, 2 mM DTT; 21.5°C.
The target of assay [2] is FliS (flagellar export chaperone FliS of Helicobacter pylori), GST tag removed (Helicobacter pylori (strain 26695)). Described as above.
The target in assay [3] is GST-FliS (Helicobacter pylori (strain 26695)). The assay can be described thus: pull-down; competitive: the same experiment as a5, for purified HP1076 added at molar ratios to GST-FliS of 0, 0.5:1, 5:1 and 50:1 in the presence of H. pylori lysate; read-out is the flagellin band.

Several values for one entry are separate records, joined by “and”; a condition that tells them apart may be missing. Equal values may be shown once.

B1: His-HP1076 (natural protein)
chain: MDILKTLQKHLGDVETSDFTTNAIEKSQQIAKFSRDMKNINESVGALQVLQIACKKLFNKSMGLEDKDALQASIIKQELREIVENCQFLASPLFDTQLNIAINDEIFSMIVVNPLDLLENVGEFQAYLEEKLNEIKELLGYLSESLSNPKAFMPSFSNQSLKDLLSDNLRA
As usually defined, the Kd is the equilibrium constant for the complex coming apart. On to B1, for which the Kd in assay [1] is 1600 µM; in assay [2] it was 0.015 µM. Further, in assay [3], the binding of flagellin (FlaA/FlaB band) to GST-FliS left when saturated by HP1076 (fraction of the binding without HP1076) is 0.2 and 0.25.

Values taken from publication PMC7248283.
